Assay results: publication doi:10.1101/2020.06.18.159806 (bioRxiv, 2020)

Target: the molecule itself
Assay: crystal structure

B1: C-terminal tail of mouse SLAP2 (residues 237-255) (domain or fragment, UniProt Q8R4L0 237-255, looked up)
chain: LSEGLRESLSSYISLAEDP
binding result: binds
